From PMC9290431
Several values for one entry are separate records, joined by “and”; a condition that tells them apart may be missing. Equal entries are not always repeated. Where two headings read alike, the source gives them in different places.

Columns and labels:
TDP-43 NTD-NLS (human) [1] = assay: AUC
TDP-43 NTD-NLS (human) [2] = assay: AUC; remark: listed apart in the source

- stoichiometry N (TDP-43 NTD-NLS (human) [1]): 2 and 4
- stoichiometry N (TDP-43 NTD-NLS (human) [2]): 8
Substance: TDP-43 NTD-NLS (domain or fragment)
